Data: patent US9279107B2, “Simplified basic media for human pluripotent cell culture” (WISCONSIN ALUMNI RESEARCH FOUNDATION, priority 2010, dated 2016)

Assays:
foreskin cells = experiment: Foreskin cell growth in DF5SFe-based media; parameters: species or system human; conditions: individual FGF added at 100 ng/ml for 96 h to DF5SFe minus FGF
Protocol: To determine growth factors that can help primary foreskin cell growth, individual growth factors contained in FBS were tested. The FGF family of growth factors has several members, one or more of which is commonly used for fibroblast culture. DF5SFe contains 100 ng/ml zebrafish recombinant FGF2. Each FGF family member was tested for its ability to support foreskin cell growth. Foreskin cells were aliquoted into the well of culture plates and incubated for 24 hours in DF5SFe minus FGF. Individual FGF types were added at 100 ng/ml for 96 h.

H1 cells [1] = experiment: NANOG mRNA expression; type: cell-based, human; conditions: added to DF5S; NODAL 100 ng/ml or TGF-β 2 ng/ml; compared to DF5S
Excerpt: DF5S was used to expand H1 cells. Cells grown in DF5S were more prone to differentiate than cells grown in TeSR™. However, H1 cells could be grown for several weeks (more than 15 passages), during which the cells maintained human ES cell morphology and high levels of OCT4 expression (FIG. 1E, FIG. 1F). […] DF5S+NODAL also supported pluripotency of the two tested human iPS cell lines, as determined by high expression of the pluripotency marker OCT4. All cells (hES cells and iPS cells) grown in DF5S with either NODAL or TGF-β maintained a normal karyotype after long-term passage.

iPS cells = experiment: Long-term pluripotency of lentiviral iPS cell lines; type: cell-based, human; conditions: added to DF5SFe; TGF-β 2 ng/ml or NODAL 100 ng/ml
Excerpt: Human ES cell lines, such as H1 and H9 have a culture history that includes exposure to various complex culture components, such as FBS, feeder cells, and knockout serum replacer. Exposure to these components could conceivably create dependency on these components and, consequently, alter cellular response to simplified media. Culture history might play a lesser role for iPS cells, derived from reprogrammed somatic cells, as derivation conditions are less complex. Therefore, different factors were tested with two original lentiviral iPS cell lines (Yu, et al., Science 318:1917 (2007)) grown in DF5SFe. Cells were transferred from MEF plates directly into DF5SFe medium for one passage and then passaged into various growth factor conditions. […] Pluripotency surface markers SSEA4, SSEA3, Tra-1-60, and Tra-1-81 were also expressed. Cells with normal karyotypes were continuously maintained for more than 20 passages. The cells were capable of forming teratomas 5-7 weeks after injection into severe combined immunodeficient (SCID) mice.

H1 cells [2] = experiment: Oct4 expression by flow cytometry as indicator of pluripotency; type: cell-based, human; conditions: DF5SFe supplemented with NODAL at TeSR concentration
Protocol: As described in Example 3, human pluripotent cells, such as H1, H9, and iPS cells, could be grown and passaged over 15 times in DF5S but were prone to differentiate, such that extra care is needed to sustain pluripotency in DF5S. Because pluripotency could be maintained more easily in TeSR™, growth factors present in TeSR™ were added individually to DF5SFe used to grow H1 cells that were previously cultured in DF5S without differentiating to identify factors supporting long-term pluripotency. Cells were passaged approximately one day after reaching confluency, facilitating cell differentiation, and Oct4 expression, assessed by flow cytometry, was used as indicator of pluripotency.
Human pluripotent cells grown in DF5SFe elongated and lined up along each other, resembling a “spindle” shape just prior to differentiation. […] Thus, recombinant proteins of the TGF-β pathway were tested for their ability to support long-term pluripotency.

B1: FGF4: FGF family member growth factor (protein, UniProt P08620 31-206, looked up)
Fibroblast growth factor 4: APTAPNGTLEAELERRWESLVALSLARLPVAAQPKEAAVQSGAGDYLLGIKRLRRLYCNVGIGFHLQALPDGRIGGAHADTRDSLLELSPVERGVVSIFGVASRFFVAMSSKGKLYGSPFFTDECTFKEILLPNNYNAYESYKYPGMFIALSKNGKTKKGNRVSPTMKVTHFLPRL
For B1, the foreskin cell growth (foreskin cells) was “supported foreskin cell growth most effectively”.

B2: NODAL (protein, UniProt Q96S42 238-347, looked up)
Nodal homolog: HHLPDRSQLCRKVKFQVDFNLIGWGSWIIYPKQYNAYRCEGECPNPVGEEFHPTNHAYIQSLLKRYQPHRVPSTCCAPVKTKPLSMLYVDNGRVLLDHHKDMIVEECGCL
notes: recombinant protein of the TGF-β pathway
In the case of B2, the “NANOG mRNA level” value (H1 cells [1]) is reported as “significantly higher levels of NANOG mRNA”, the long-term pluripotency (iPS cells) is reported as “supported long-term pluripotency of iPS cells” and the Oct4 expression (H1 cells [2]) is reported as “sustained high Oct4 expression”.

B3: FGF6: FGF family member growth factor (protein, UniProt P10767 38-208, looked up)
Fibroblast growth factor 6: SPAGTRANNTLLDSRGWGTLLSRSRAGLAGEIAGVNWESGYLVGIKRQRRLYCNVGIGFHLQVLPDGRISGTHEENPYSLLEISTVERGVVSLFGVRSALFVAMNSKGRLYATPSFQEECKFRETLLPNNYNAYESDLYQGTYIALSKYGRVKRGSKVSPIMTVTHFLPRI
B3 was tested, and the foreskin cell growth (foreskin cells) was “supported foreskin cell growth most effectively”.
